From patent publication US20250296971A1, “GASTRIC INHIBITORY PEPTIDE RECEPTOR LIGANDS” (priority 2021, published 2025)
*1 amine or outer side, *2 acyl side, *3 side chain or, on linkers, in order; H or OH if unused. Bridges are numbered along the chain shown (N, C = ends). Primed or numbered codes have the meaning given here. [ ]: non-standard residue; d: D form. The star is where a group is joined. Ttds″ = 1,13-diamino-4,7,10-trioxatridecan-succinamic acid (linker), O=C(CCC(=O)[*:2])NCCCOCCOCCOCCCN[*:1]; Ttds = 1,13-diamino-4,7,10-trioxatridecan-succinamic acid, NCCCOCCOCCOCCCNC(=O)CCC(=O)*; DOTA(In) = O=C1CN2CCN3CCN(CC(=O)*)CCN(CC2)CC(=O)[O][In]([O]1)[O]C(=O)C3; APAc″ = 4-amino-1-carboxymethylpiperidine, NC1CCN(CC(=O)*)CC1; dE(AGLU) = D-glutamic acid bearing 1-amino-1-deoxy-D-glucitol; Pro(trans-4-NH2) = O=C([C@@H]1C[C@@H](N[*:3])CN1[*:1])[*:2]; DO3AM = NC(=O)CN1CCN(CC(N)=O)CCN(CC(=O)*)CCN(CC(N)=O)CC1; DOTA = O=C(O)CN1CCN(CC(=O)O)CCN(CC(=O)*)CCN(CC(=O)O)CC1; 3MeBn = 3-methyl-benzylidene (derived from 1,3-xylene); 2Lut = 2,6-lutidylidene bridge between two thiols; Trp(5-Cl) = N[C@@H](Cc1c[nH]c2ccc(Cl)cc12)C(=O)O; Pyridine(2,6-diCH2) = c1cc(C[*:1])nc(C[*:2])c1; Trp(5-F) = N[C@@H](Cc1c[nH]c2ccc(F)cc12)C(=O)O; APAc = 4-amino-1-carboxymethylpiperidine; Glutaryl = O=C(CCCC(=O)[*:2])[*:1]; AGLU = 1-amino-1-deoxy-D-glucitol; mli = maleimide bridging scaffold; Hyp = O=C(O)[C@@H]1C[C@@H](O)CN1; Cysteamide = C(CS[*:3])N[*:1]; Suc = O=C(CCC(=O)[*:2])[*:1]; αMeK = C[C@](N)(CCCCN)C(=O)O; hCys = N[C@@H](CCS)C(=O)O; Api = NC1(C(=O)O)CCNCC1; Thp = NC1(C(=O)O)CCOCC1; Dap = NC[C@H](N)C(=O)O; NH(CH2)5NH2 = NCCCCCN*; DOTA′ = DOTA chelator; Aib = CC(C)(N)C(=O)O

Key:
[1] = target: biotinylated extracellular domain of the human GIP receptor (bioGIPR) (human) (UniProt P48546); test: SPR single cycle kinetics, bioGIPR captured on chip; category A: pKD >9.0
[2] = target: human Gastric Inhibitory Peptide Receptor (human) (UniProt P48546); test: FACS competition with GIP-057 on CHO-K1-hGIPR cells; pIC50 category A: >8.0
[3] = target: biotinylated extracellular domain of the human GIP receptor (bioGIPR) (human) (UniProt P48546); test: SPR single cycle kinetics, bioGIPR captured on chip; category A: t1/2 >15 min
[4] = target: human Gastric Inhibitory Peptide Receptor (GIPR) (human) (UniProt P48546); test: FACS competition vs biotinylated GIP-057 on CHO-K1-hGIPR cells; category A: pIC50 >8.0
Chain of human Gastric Inhibitory Peptide Receptor (GIPR) (human) (P48546 22-466 limits assumed): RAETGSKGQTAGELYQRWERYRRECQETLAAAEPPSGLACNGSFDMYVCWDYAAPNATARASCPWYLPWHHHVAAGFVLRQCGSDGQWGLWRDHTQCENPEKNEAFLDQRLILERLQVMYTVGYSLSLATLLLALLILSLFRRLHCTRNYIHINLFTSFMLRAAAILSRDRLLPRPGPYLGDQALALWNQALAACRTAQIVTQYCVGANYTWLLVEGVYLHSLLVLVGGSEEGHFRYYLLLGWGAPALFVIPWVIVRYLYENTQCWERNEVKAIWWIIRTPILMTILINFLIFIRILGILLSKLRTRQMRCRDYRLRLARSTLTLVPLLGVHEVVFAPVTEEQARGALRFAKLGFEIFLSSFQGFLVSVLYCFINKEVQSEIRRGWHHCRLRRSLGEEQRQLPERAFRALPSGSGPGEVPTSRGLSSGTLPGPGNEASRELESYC

Chain of human Gastric Inhibitory Peptide Receptor (human) (P48546 22-466 limits assumed): as above
Chain of biotinylated extracellular domain of the human GIP receptor (bioGIPR) (human) (P48546 24-138 limits assumed): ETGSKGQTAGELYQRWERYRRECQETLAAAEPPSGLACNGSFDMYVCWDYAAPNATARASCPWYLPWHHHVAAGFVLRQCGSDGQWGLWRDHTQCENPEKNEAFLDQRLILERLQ

B1: DOTA-Ttds-Asp-Trp-5Clw-Pro-Glu-leu-[Cys(2Lut)-Apc-Leu-Ile-AET] (peptide)
peptide: {DOTA-Ttds″}-DW[Trp(5-Cl)]PE[dL]C[Api]LI-Cysteamide
modifications: not fully specified (bridges); printed as DOTA-Ttds-Asp-Trp-5Clw-Pro-Glu-leu-[Cys(2Lut)-Apc-Leu-Ile-AET]
[1]
  pKD: > 9 pkd
[2]
  pIC50: > 8 pic50
[3]
  t1/2: > 15 min

## Ac-D[Trp(5-F)][Trp(5-Cl)][Hyp]E[dL]C[Thp]LIC-NH2 (linker 7-11 via Pyridine(2,6-diCH2)) [Ac-Asp-5Fw-5Clw-Hyp-Glu-leu-[Cys(2Lut)-Thp-Leu-Ile-Cys]-NH2]
[4]
  pIC50: > 8 pic50

## Ac-DW[Trp(5-Cl)][Hyp]E[dL]C[Thp]LI[hCys]-NH2 (linker 7-11 via mli) [Ac-Asp-Trp-5Clw-Hyp-Glu-leu-[Cys(mli)-Thp-Leu-Ile-Hcy]-NH2]
[4]
  pIC50: > 8 pic50

B2: AGLU-Glutar-Asp-Trp-5Clw-Hyp-Glu-leu-[Cys(2Lut)-Apc(InDOTA)-Leu-Ile-AET] (peptide)
peptide: {AGLU-Glutaryl}-DW[Trp(5-Cl)][Hyp]E[dL]C[Api](DOTA(In))LI[Cysteamide]
modifications: thioether (positions not given here) via Pyridine(2,6-diCH2); not fully specified (bridges); printed as AGLU-Glutar-Asp-Trp-5Clw-Hyp-Glu-leu-[Cys(2Lut)-Apc(InDOTA)-Leu-Ile-AET]; also: In complex of DOTA
[1]
  pKD: > 9 pkd
[2]
  pIC50: > 8 pic50
[3]
  t1/2: > 15 min

## {AGLU-Glutaryl-APAc}-DW[Trp(5-Cl)][Pro(trans-4-NH2)]E[dL]C[Api]LIC-{APAc-dE(AGLU)-NH2} (linker 7-11 via Pyridine(2,6-diCH2); not fully specified (residue 8))
[1]
  pKD: > 9 pkd
[2]
  pIC50: > 8 pic50
[3]
  t1/2: > 15 min

## {DOTA-Ttds}-DW[Trp(5-Cl)][Pro(trans-4-NH2)]E[dL][Dap][Api]LI[Cysteamide] (linker 7-11 via Pyridine(2,6-diCH2)) [DOTA-Ttds-Asp-Trp-5Clw-Tap-Glu-leu-[Dap(2Lut)-Apc-Leu-Ile-AET]]
[1]
  pKD: > 9 pkd
[2]
  pIC50: > 8 pic50
[3]
  t1/2: > 15 min

## Suc-W[Trp(5-Cl)][Hyp]E[dL]C[Api]LIC-{APAc-Lys(DOTA)-NH2} (linker 6-10 via 2Lut) [HO-Succinyl-Trp-5Clw-Hyp-Glu-leu-[Cys(2Lut)-Apc-Leu-Ile-Cys]-APAc-Lys(DOTA)-NH2]
[1]
  pKD: > 9 pkd
[2]
  pIC50: > 8 pic50
[3]
  t1/2: > 15 min

## Suc-W[Trp(5-Cl)][Hyp]E[dL]C[Api](DOTA)LI[Cysteamide] (linker 6-10 via 2Lut) [HO-Succinyl-Trp-5Clw-Hyp-Glu-leu-[Cys(2Lut)-Apc(DOTA)-Leu-Ile-AET]]
[1]
  pKD: > 9 pkd
[2]
  pIC50: > 8 pic50
[3]
  t1/2: > 15 min

## Ac-DW[Trp(5-Cl)][Hyp]A[dL]C[Thp]LIC-NH2 (linker 7-11 via Pyridine(2,6-diCH2)) [Ac-Asp-Trp-5Clw-Hyp-Ala-leu-[Cys(2Lut)-Thp-Leu-Ile-Cys]-NH2]
[4]
  pIC50: > 8 pic50

## {DOTA(In)-Ttds}-DW[Trp(5-Cl)][Hyp]E[dL]C[Aib]LI[Cysteamide] (linker 7-11 via 3MeBn; also: DOTA as indium complex (InDOTA)) [InDOTA-Ttds-Asp-Trp-5Clw-Hyp-Glu-leu-[Cys(3MeBn)-Aib-Leu-Ile-AET]]
[1]
  pKD: > 9 pkd
[2]
  pIC50: > 8 pic50
[3]
  t1/2: > 15 min

## {AGLU-Glutaryl}-DW[Trp(5-Cl)][Pro(trans-4-NH2)]E[dL]C[αMeK](DOTA)LIC-{APAc-dE(AGLU)-NH2} (linker 7-11 via Pyridine(2,6-diCH2)) [AGLU-Glutar-Asp-Trp-5Clw-Tap-Glu-leu-[Cys(2Lut)-Amk(DOTA)-Leu-Ile-Cys]-APAc-glu(AGLU)-NH2]
[4]
  pIC50: > 8 pic50

## {AGLU-Glutaryl}-DW[Trp(5-Cl)][Pro(trans-4-NH2)]E[dL]C[Api](DO3AM)LIC-{APAc-dE(AGLU)-NH2} (linker 7-11 via Pyridine(2,6-diCH2)) [AGLU-Glutar-Asp-Trp-5Clw-Tap-Glu-leu-[Cys(2Lut)-Apc(DOTAM)-Leu-Ile-Cys]-APAc-glu(AGLU)-NH2]
[4]
  pIC50: > 8 pic50

## {DOTA-Ttds}-DW[Trp(5-Cl)][Pro(trans-4-NH2)]E[dL]C[Api]LI[Cysteamide] (linker 7-11 via Pyridine(2,6-diCH2)) [DOTA-Ttds-Asp-Trp-5Clw-Tap-Glu-leu-[Cys(2Lut)-Apc-Leu-Ile-AET]]
[1]
  pKD: > 9 pkd
[2]
  pIC50: > 8 pic50
[3]
  t1/2: > 15 min

B3: AGLU-Glutar-Asp-Trp-5Clw-Hyp-Glu-leu-[Cys(2Lut)-Apc(AGLU-Glutar)-Leu-Ile-Cys]-APAc-Lys(DOTA)-NH2 (peptide)
peptide: DWXXEXCXLIC
modifications: AGLU-Glutar; 5Clw; Hyp; D-leu; Apc(AGLU-Glutar); 2Lut bridge Cys-Cys; APAc; Lys(DOTA); C-term NH2
[1]
  pKD: > 9 pkd
[2]
  pIC50: > 8 pic50
[3]
  t1/2: > 15 min

## Suc-W[Trp(5-Cl)][Hyp]E[dL]C[Thp]LIC-{NH(CH2)5NH2-DOTA′} (linker 6-10 via 2Lut) [HO-Succinyl-Trp-5Clw-Hyp-Glu-leu-[Cys(2Lut)-Thp-Leu-Ile-Cys]-Ape-DOTA]
[1]
  pKD: > 9 pkd
[2]
  pIC50: > 8 pic50
[3]
  t1/2: > 15 min

## {DOTA(In)-APAc″}-DW[Trp(5-Cl)]PE[dL]C[Aib]LI[Cysteamide] (linker 7-11 via 3MeBn; also: DOTA as indium complex (InDOTA)) [InDOTA-APAc-Asp-Trp-5Clw-Pro-Glu-leu-[Cys(3MeBn)-Aib-Leu-Ile-AET]]
[1]
  pKD: > 9 pkd
[2]
  pIC50: > 8 pic50
[3]
  t1/2: > 15 min
